# Assay results taken from patent publication EP0817650B1.
# Legend:
# [1] = target: MHC Class II products on splenic antigen-presenting cells of SJL mice (H-2 s) (mouse); experiment: flow cytometry, inhibition of binding to SJL splenic APC; competitor: biotinylated peptide IIIa
# [2] = target: MHC Class II products on splenic antigen-presenting cells of SJL mice (H-2 s) (mouse); experiment: flow cytometry, inhibition of binding to SJL splenic APC; competitor: biotinylated peptide Ia
# [3] = target: MHC Class II products on splenic antigen-presenting cells of C3H.SW mice (H-2 b) (mouse) (UniProt P14434); experiment: flow cytometry, inhibition of binding to C3H.SW splenic APC; competitor: biotinylated peptide Ia
# [4] = target: MHC Class II products on splenic antigen-presenting cells of C3H.SW mice (H-2 b) (mouse) (UniProt P14434); experiment: flow cytometry, inhibition of binding to C3H.SW splenic APC; competitor: biotinylated peptide IIIa
# [5] = target: MHC Class II products on splenic antigen-presenting cells of C57BL/6 mice (H-2 b) (mouse) (UniProt P14434); experiment: flow cytometry, inhibition of binding to C57BL/6 splenic APC; competitor: biotinylated peptide IIIa
# [6] = target: T1, MHC Class II products on splenic antigen-presenting cells of BALB/c mice (H-2 d) (mouse) (UniProt P04228); experiment: flow cytometry, inhibition of binding to BALB/c splenic APC; competitor: biotinylated peptide IIIa
# T1 sequence (alpha): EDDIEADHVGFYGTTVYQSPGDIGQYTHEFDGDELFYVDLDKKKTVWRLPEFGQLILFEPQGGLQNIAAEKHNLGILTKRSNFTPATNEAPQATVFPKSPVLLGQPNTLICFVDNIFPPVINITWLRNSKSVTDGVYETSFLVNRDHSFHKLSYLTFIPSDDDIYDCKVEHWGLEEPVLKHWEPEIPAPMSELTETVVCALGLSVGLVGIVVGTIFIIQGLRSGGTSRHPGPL
# T1 sequence (beta): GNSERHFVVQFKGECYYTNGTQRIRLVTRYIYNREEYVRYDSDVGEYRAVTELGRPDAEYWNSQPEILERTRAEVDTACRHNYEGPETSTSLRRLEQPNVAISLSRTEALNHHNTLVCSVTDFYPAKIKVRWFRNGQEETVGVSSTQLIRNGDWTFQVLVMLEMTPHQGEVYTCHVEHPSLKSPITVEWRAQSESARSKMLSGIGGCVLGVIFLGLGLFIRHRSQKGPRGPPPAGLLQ
# [7] = target: MHC Class II products on splenic antigen-presenting cells of C57BL/6 mice (H-2 b) (mouse) (UniProt P14434); experiment: flow cytometry, inhibition of binding to C57BL/6 splenic APC; competitor: biotinylated peptide Ia
# [8] = target: T1, MHC Class II products on splenic antigen-presenting cells of BALB/c mice (H-2 d) (mouse); experiment: flow cytometry, inhibition of binding to BALB/c splenic APC; competitor: biotinylated peptide Ia
Substance,%inhibition [1] [%],%inhibition [2] [%],%inhibition [3] [%],%inhibition [4] [%],%inhibition [5] [%],%inhibition [6] [%],%inhibition [7] [%],%inhibition [8] [%]
10.3.6.2 (anti-I-A^s) (antibody),92.8,100,,,,,,
"34-5-3 (anti-I-A^b, Pharmingen) (antibody)",,,60,84.4,59.3,0,82,0
"MKD6 (anti-I-A^d, Beckton-Dickinson) (antibody)",0,0,0,25,0,100,0,76.7
